Source: publication PMC10441612

Target: Noe1-His (Noelin 1 with C-terminal hexa-histidine tag), O88998
Assay: AUC
Details: remark: other sources report otherwise

B1: Noe1-His (Noelin 1 with C-terminal hexa-histidine tag), O88998 17-485 (natural protein)
chain: MITNWMSQTLPSLVGLNTTRLSAASGGTLDRSTGVLPTNPEESWQVYSSAQDSEGRCICTVVAPQQTMCSRDARTKQLRQLLEKVQNMSQSIEVLDRRTQRDLQYVEKMENQMKGLETKFKQVEESHKQHLARQFKAIKAKMDELRPLIPVLEEYKADAKLVLQFKEEVQNLTSVLNELQEEIGAYDYDELQSRVSNLEERLRACMQKLACGKLTGISDPVTVKTSGSRFGSWMTDPLAPEGDNRVWYMDGYHNNRFVREYKSMVDFMNTDNFTSHRLPHPWSGTGQVVYNGSIYFNKFQSHIIIRFDLKTEAILKTRSLDYAGYNNMYHYAWGGHSDIDLMVDENGLWAVYATNQNAGNIVISKLDPVSLQILQTWNTSYPKRSAGEAFIICGTLYVTNGYSGGTKVHYAYQTNASTYEYIDIPFQNKYSHISMLDYNPKDRALYAWNNGHQTLYNVTLFHVIRSDEL
modifications: here or on the partner: glycosylated; glycosylated
Binder B1 has a stoichiometry N of 4.
